# Laboratory results: the supplement of paper PMC9112550, “Optimization of the antimicrobial peptide Bac7 by deep mutational scanning” (BMC Biology, 2022)
# Test system: Escherichia coli TOP10
# Test: shrunken log2 fold change of peptide-encoding DNA abundance (4.5 h post-induction vs induction); higher = less antimicrobial activity (less host growth inhibition)
# Details: time post-induction: 4.5 h; library: site-saturation at positions 5, 18, 19, 20
# 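Also: peptides expressed intracellularly from a pBAD plasmid library in pooled LB shake-flask culture, induced with 0.3% L-arabinose, DNA abundance read by NGS, three biological replicates, DESeq2 with apeglm shrinkage.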
row,Sequence,shrunken log2 fold change
1,RRIRVRPPRLPRPRPRPPLIPRP,1.02
2,RRIRMRPPRLPRPRPRPYFEPRP,-0.318
3,RRIRYRPPRLPRPRPRPPNMPRP,-0.863
4,RRIRQRPPRLPRPRPRPAWNPRP,-0.206
5,RRIRTRPPRLPRPRPRPIIDPRP,-0.000898
6,RRIRARPPRLPRPRPRPMINPRP,-0.0176
7,RRIRERPPRLPRPRPRPIKWPRP,-0.0383
8,RRIRCRPPRLPRPRPRPVSVPRP,-0.0739
9,RRIRARPPRLPRPRPRPVYIPRP,-0.355
10,RRIRERPPRLPRPRPRPTNEPRP,-0.676
11,RRIRFRPPRLPRPRPRPLNCPRP,-0.125
12,RRIRQRPPRLPRPRPRPLCFPRP,-0.302
13,RRIRARPPRLPRPRPRPSEVPRP,0.258
14,RRIRVRPPRLPRPRPRPFMSPRP,0.0334
15,RRIRVRPPRLPRPRPRPEDHPRP,-0.021
16,RRIRSRPPRLPRPRPRPIKWPRP,-0.197
17,RRIRLRPPRLPRPRPRPRQQPRP,0.319
18,RRIRPRPPRLPRPRPRPWTDPRP,0.0245
19,RRIRYRPPRLPRPRPRPLFQPRP,-0.76
20,RRIRDRPPRLPRPRPRPQHQPRP,-0.108
21,RRIRDRPPRLPRPRPRPRAKPRP,0.208
22,RRIRGRPPRLPRPRPRPDDFPRP,0.0116

row,Sequence,shrunken log2 fold change
1,RRIRHRPPRLPRPRPRPEPHPRP,0.113
2,RRIRHRPPRLPRPRPRPTRDPRP,0.054
3,RRIRCRPPRLPRPRPRPDPSPRP,-0.0265
4,RRIRQRPPRLPRPRPRPIWQPRP,-0.049
5,RRIRPRPPRLPRPRPRPCFQPRP,-0.0314
6,RRIRHRPPRLPRPRPRPRQGPRP,0.093
7,RRIRSRPPRLPRPRPRPKIAPRP,0.0525
8,RRIRFRPPRLPRPRPRPGLAPRP,0.344
9,RRIRMRPPRLPRPRPRPVNIPRP,-0.361
10,RRIRKRPPRLPRPRPRPCDEPRP,0.121
11,RRIRNRPPRLPRPRPRPTYQPRP,-0.0398
12,RRIRARPPRLPRPRPRPACSPRP,0.591
13,RRIRRRPPRLPRPRPRPQDHPRP,-0.0159
14,RRIRKRPPRLPRPRPRPPMAPRP,0.41
15,RRIRCRPPRLPRPRPRPVTAPRP,0.108
16,RRIRDRPPRLPRPRPRPNKQPRP,-0.0169
17,RRIRCRPPRLPRPRPRPGPIPRP,0.367
18,RRIRYRPPRLPRPRPRPHKCPRP,-0.259
19,RRIRKRPPRLPRPRPRPWPCPRP,0.161
20,RRIRRRPPRLPRPRPRPKPDPRP,0.493
21,RRIRYRPPRLPRPRPRPSMLPRP,-1.07
22,RRIRHRPPRLPRPRPRPHNGPRP,-0.362

row,Sequence,shrunken log2 fold change
1,RRIRTRPPRLPRPRPRPWHGPRP,-0.111
2,RRIRDRPPRLPRPRPRPSDHPRP,-0.422
3,RRIRSRPPRLPRPRPRPSICPRP,-0.0672
4,RRIRVRPPRLPRPRPRPCPAPRP,-0.121
5,RRIRVRPPRLPRPRPRPMRQPRP,0.0326
6,RRIRQRPPRLPRPRPRPMTRPRP,0.0107
7,RRIRRRPPRLPRPRPRPGHYPRP,-0.0611
8,RRIRCRPPRLPRPRPRPRPRPRP,0.83
9,RRIRWRPPRLPRPRPRPAIIPRP,-0.296
10,RRIRGRPPRLPRPRPRPHRLPRP,0.14
11,RRIRARPPRLPRPRPRPTFPPRP,0.308
12,RRIRHRPPRLPRPRPRPAFTPRP,-0.311
13,RRIRGRPPRLPRPRPRPCATPRP,2.7
14,RRIRKRPPRLPRPRPRPPSIPRP,0.0697
15,RRIRYRPPRLPRPRPRPKKCPRP,-0.0883
16,RRIRLRPPRLPRPRPRPNAFPRP,0.00952
17,RRIRYRPPRLPRPRPRPYHKPRP,-0.249
18,RRIRGRPPRLPRPRPRPWPCPRP,0.373
19,RRIRWRPPRLPRPRPRPYWPPRP,-0.022
20,RRIRHRPPRLPRPRPRPNFYPRP,-0.515
21,RRIRFRPPRLPRPRPRPRQTPRP,-0.0912
22,RRIRERPPRLPRPRPRPFAEPRP,-0.326

row,Sequence,shrunken log2 fold change
1,RRIRERPPRLPRPRPRPIGAPRP,-0.464
2,RRIRRRPPRLPRPRPRPGSLPRP,-0.00238
3,RRIRCRPPRLPRPRPRPYPAPRP,-0.53
4,RRIRRRPPRLPRPRPRPWLWPRP,0.0836
5,RRIRTRPPRLPRPRPRPFEHPRP,-0.32
6,RRIRLRPPRLPRPRPRPHNNPRP,-0.847
7,RRIRTRPPRLPRPRPRPLNIPRP,-0.36
8,RRIRPRPPRLPRPRPRPMIIPRP,-0.152
9,RRIRKRPPRLPRPRPRPKEGPRP,0.0503
10,RRIRQRPPRLPRPRPRPYFAPRP,-0.292
11,RRIRVRPPRLPRPRPRPPSRPRP,0.743
12,RRIRERPPRLPRPRPRPELNPRP,-0.119
13,RRIRLRPPRLPRPRPRPSSLPRP,-0.39
14,RRIRTRPPRLPRPRPRPYTGPRP,-0.0567
15,RRIRERPPRLPRPRPRPEQQPRP,-0.0255
16,RRIRYRPPRLPRPRPRPLCFPRP,-0.727
17,RRIRDRPPRLPRPRPRPIHTPRP,-0.159
18,RRIRRRPPRLPRPRPRPSNKPRP,-0.101
19,RRIRCRPPRLPRPRPRPFIDPRP,-0.464
20,RRIRHRPPRLPRPRPRPGSNPRP,0.0117
21,RRIRERPPRLPRPRPRPWGKPRP,-0.042
22,RRIRSRPPRLPRPRPRPYDDPRP,0.0208

row,Sequence,shrunken log2 fold change
1,RRIRLRPPRLPRPRPRPGIVPRP,-0.16
2,RRIRCRPPRLPRPRPRPTTHPRP,-0.0573
3,RRIRLRPPRLPRPRPRPTGQPRP,0.107
4,RRIRERPPRLPRPRPRPTDEPRP,-0.0552
5,RRIRIRPPRLPRPRPRPYHSPRP,-0.00112
6,RRIRTRPPRLPRPRPRPGYHPRP,-0.315
7,RRIRFRPPRLPRPRPRPANDPRP,0.0325
8,RRIRTRPPRLPRPRPRPHNDPRP,-1.58
9,RRIRIRPPRLPRPRPRPIGPPRP,0.0815
10,RRIRCRPPRLPRPRPRPKDWPRP,0.378
11,RRIRMRPPRLPRPRPRPRKSPRP,0.902
12,RRIRDRPPRLPRPRPRPACQPRP,0.0344
13,RRIRIRPPRLPRPRPRPLAPPRP,0.157
14,RRIRCRPPRLPRPRPRPWCSPRP,-0.321
15,RRIRCRPPRLPRPRPRPCLGPRP,-0.224
16,RRIRNRPPRLPRPRPRPHIAPRP,-0.621
17,RRIRSRPPRLPRPRPRPTNNPRP,-0.455
18,RRIRQRPPRLPRPRPRPVSMPRP,-0.181
19,RRIRVRPPRLPRPRPRPYMIPRP,-0.904
20,RRIRCRPPRLPRPRPRPWVVPRP,-0.168
21,RRIRRRPPRLPRPRPRPGVAPRP,0.858
